The assay addresses Human β2GPI domain deletion mutant DI-DIV (human). The assay can be described thus: ELISA; β2GPI or domain deletion mutants coated on Maxisorb plates at 1 µM overnight at 4 °C; Apo E-Biotin 50 nM, 1 h at RT; streptavidin-HRP, OD 450; % of binding to full length β2GPI. A general note: ELISA stands for enzyme-linked immunosorbent assay.

For “Human Apo E2, biotinylated (from UniProt P02649 19-317) (natural protein)”, the % binding was 42.5%.

Values taken from article PMC12535091.
